We go through five molecules from article PMC3834827, “Crystal structure of the DdrB/ssDNA complex from Deinococcus radiodurans reveals a DNA binding surface involving higher-order oligomeric states” (Nucleic Acids Research, 2013).

Data set [1] addresses DdrB R83A mutant with N-terminal 6His tag (Deinococcus radiodurans) (UniProt Q9RY80). In words: AUC; sedimentation velocity, 20°C, 42 krpm, 100 mM KCl, 20 mM Tris pH 8.0, loading concentrations 10 µM to 0.64 mM, absorbance and interference optics, no DNA; pentamer and assemblies of pentamers.
In data set [2] the target is DdrB E51A mutant with N-terminal 6His tag (Deinococcus radiodurans) (UniProt Q9RY80). The data set is described as above.
The target of data set [3] is T1, DdrB1-144 (Deinococcus radiodurans, UniProt Q9RY80 1-144).
T1 sequence: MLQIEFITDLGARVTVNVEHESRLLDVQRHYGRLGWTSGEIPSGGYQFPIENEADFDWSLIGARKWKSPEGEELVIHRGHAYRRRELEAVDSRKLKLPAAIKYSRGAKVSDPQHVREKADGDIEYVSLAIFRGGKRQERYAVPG
Description: EMSA; pentamer, decamer and penta-decamer complexes; 10 uM DNA; FP: 20 mM Tris pH 8.0, 100 mM KCl, 200 nM DNA; EMSA: same plus 15% glycerol, 10 uM DNA; temperature not stated. To be noted: protein: recombinant; tags: N-terminal 6His (pET151, not cleaved); chain copies: 5. Background: A gel shift assay detects complexes by their altered migration in electrophoresis.

Data set [4] addresses T2, DdrB1-144, tag removed (Deinococcus radiodurans, UniProt Q9RY80 1-144).
T2 sequence: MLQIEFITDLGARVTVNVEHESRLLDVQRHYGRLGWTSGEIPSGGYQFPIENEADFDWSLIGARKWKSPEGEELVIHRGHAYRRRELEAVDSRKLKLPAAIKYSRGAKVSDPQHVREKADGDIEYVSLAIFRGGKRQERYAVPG
In words: X-ray crystallography 2.30 A; MES pH 5.6, KCl, 10 mM MgCl2, PEG 8000; FP: 20 mM Tris pH 8.0, 100 mM KCl, 200 nM DNA; EMSA: same plus 15% glycerol, 10 uM DNA; temperature not stated. Conditions: protein: recombinant; tags: 6His removed by TEV; chain copies: 5.

For data set [5], the target named is T3, DdrB E51A (Deinococcus radiodurans, UniProt Q9RY80 1-144, E51A).
T3 sequence: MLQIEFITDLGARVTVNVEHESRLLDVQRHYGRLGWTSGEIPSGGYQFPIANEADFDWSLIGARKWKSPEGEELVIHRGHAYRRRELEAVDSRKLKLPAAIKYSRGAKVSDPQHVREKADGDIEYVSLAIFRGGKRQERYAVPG
In words: EMSA; single pentamer-DNA complex only, no higher-order shifts; 10 uM DNA; FP: 20 mM Tris pH 8.0, 100 mM KCl, 200 nM DNA; EMSA: same plus 15% glycerol, 10 uM DNA; temperature not stated. Conditions: protein: recombinant; tags: N-terminal 6His; chain copies: 5.

Data set [6] addresses T1, DdrB1-144. In words: fluorescence anisotropy; per pentamer, A+B=AB model; FP: 20 mM Tris pH 8.0, 100 mM KCl, 200 nM DNA; EMSA: same plus 15% glycerol, 10 uM DNA; temperature not stated. To be noted: protein: recombinant; tags: N-terminal 6His (pET151, not cleaved); chain copies: 5; label: 5' 6-FAM.
Data set [7] deals with T3, DdrB E51A. In words: fluorescence anisotropy; 3 uM pentamer; full DNA binding activity retained; FP: 20 mM Tris pH 8.0, 100 mM KCl, 200 nM DNA; EMSA: same plus 15% glycerol, 10 uM DNA; temperature not stated. Conditions: protein: recombinant; tags: N-terminal 6His; chain copies: 5; label: 5' 6-FAM. In general terms: Polarisation of emitted light reports the rotation of a fluorescent probe.

For data set [8], the target named is T4, DdrB W66A (Deinococcus radiodurans, UniProt Q9RY80 1-144, W66A).
T4 sequence: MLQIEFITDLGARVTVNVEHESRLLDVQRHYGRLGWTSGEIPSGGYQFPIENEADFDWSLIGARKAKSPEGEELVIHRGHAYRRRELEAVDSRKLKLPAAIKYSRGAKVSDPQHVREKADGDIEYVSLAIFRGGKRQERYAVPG
Description: fluorescence anisotropy; per pentamer; saturating anisotropy fixed to wild-type value; FP: 20 mM Tris pH 8.0, 100 mM KCl, 200 nM DNA; EMSA: same plus 15% glycerol, 10 uM DNA; temperature not stated. To be noted: protein: recombinant; tags: N-terminal 6His; chain copies: 5; label: 5' 6-FAM.

Data set [9] concerns the molecule itself. In words: crystal structure; 740 µM DdrBDr with 160 µM 50b poly dT, hanging drop at 20°C; 2.30 Å; pentamer in the asymmetric unit, pentamer-pentamer interface by crystallographic symmetry.

In data set [1], “DdrB R83A mutant with N-terminal 6His tag (from UniProt Q9RY80 1-144) (domain or fragment)” yielded a percent of the total signal from the pentamer of 92% and a stoichiometry N of 5.
In [2], “DdrB E51A mutant with N-terminal 6His tag (from UniProt Q9RY80 1-144) (domain or fragment)” returned a percent of the total signal from the pentamer of 88% and a stoichiometry N of 5.
With TTTTTTTTTTTTTTTTTTTTTTTTTTTTTTTTTTTTTTTTTTTTTTTTTT (ssDNA) [50b poly dT], the binding result in [3], in [4] and in data set [5] was “binds” throughout.
With TTTTTTTTTTTTTTTTTTTT (ssDNA) [20b poly dT], the Kd in data set [6] turned out to be 3.6 µM; in data set [8] it was 51 µM. For the same molecule, the binding result in data set [7] was “binds”.

B1: DdrB1-144 from Deinococcus radiodurans, 6His tag removed (protein used in crystallography) (domain or fragment, UniProt Q9RY80 1-144, looked up)
chain: MLQIEFITDLGARVTVNVEHESRLLDVQRHYGRLGWTSGEIPSGGYQFPIENEADFDWSLIGARKWKSPEGEELVIHRGHAYRRRELEAVDSRKLKLPAAIKYSRGAKVSDPQHVREKADGDIEYVSLAIFRGGKRQERYAVPG
notes: DdrB, Deinococcus radiodurans, residues 1-144 (stop codon introduced following residue 144), construct MJ4748 in pET151/D-Topo; Pentamer; Tag cleaved with TEV protease; also called DdrBDr; not shown: His6, N-terminal, cleaved
Consider B1, for which the “stoichiometry N” value in data set [9] turned out to be 5.

Broadly, the stoichiometry N is a count of units in the complex or per binding partner. In general, Kd refers to the concentration at which binding is half-saturated.
